Reference: article PMC3819363, “Post-Transcriptional Regulator Hfq Binds Catalase HPII: Crystal Structure of the Complex” (PLoS ONE, 2013)

Biological target: the molecule itself
Assay: SDS-PAGE; samples in SDS buffer on a polyacrylamide gel; bands of the dissolved crystals identified by PMF MALDI-TOF; crystals heated at ~95°C for 5 min

B1: catalase HPII (endogenous, Escherichia coli) (enzyme, Escherichia coli (endogenous in E. coli), UniProt P21179 1-753, looked up)
chain: MSQHNEKNPHQHQSPLHDSSEAKPGMDSLAPEDGSHRPAAEPTPPGAQPTAPGSLKAPDTRNEKLNSLEDVRKGSENYALTTNQGVRIADDQNSLRAGSRGPTLLEDFILREKITHFDHERIPERIVHARGSAAHGYFQPYKSLSDITKADFLSDPNKITPVFVRFSTVQGGAGSADTVRDIRGFATKFYTEEGIFDLVGNNTPIFFIQDAHKFPDFVHAVKPEPHWAIPQGQSAHDTFWDYVSLQPETLHNVMWAMSDRGIPRSYRTMEGFGIHTFRLINAEGKATFVRFHWKPLAGKASLVWDEAQKLTGRDPDFHRRELWEAIEAGDFPEYELGFQLIPEEDEFKFDFDLLDPTKLIPEELVPVQRVGKMVLNRNPDNFFAENEQAAFHPGHIVPGLDFTNDPLLQGRLFSYTDTQISRLGGPNFHEIPINRPTCPYHNFQRDGMHRMGIDTNPANYEPNSINDNWPRETPPGPKRGGFESYQERVEGNKVRERSPSFGEYYSHPRLFWLSQTPFEQRHIVDGFSFELSKVVRPYIRERVVDQLAHIDLTLAQAVAKNLGIELTDDQLNITPPPDVNGLKKDPSLSLYAIPDGDVKGRVVAILLNDEVRSADLLAILKALKAKGVHAKLLYSRMGEVTADDGTVLPIAATFAGAPSLTVDAVIVPCGNIADIADNGDANYYLMEAYKHLKPIALAGDARKFKATIKIADQGEEGIVEADSADGSFMDELLTLMAAHRVWSRIPKIDKIPA
notes: catalase HPII of Escherichia coli, product of the katE gene, endogenous protein, printed molecular weight 84 kDa; residues 27-753 and one heme resolved in the map; Homotetramer, one heme per subunit; also called HPII tetramer; source: endogenous, E. coli overexpressing PomAB mutants
stoichiometry N: 2 subunits
